The record followed here is article PMC10385363, “Enhancing the Catalytic Activity of Glycolate Oxidase from Chlamydomonas reinhardtii through Semi-Rational Design” (Microorganisms, 2023).

In data set [1] the target is T1, GST-GSG-CreGO (glycolate oxidase CreGO) (Chlamydomonas reinhardtii, UniProt F8WQN2, Y27S/V111G, form not given).
T1 construct: gene CHLRE_03g171300v5
As to conditions: read-out: GST-GSG-CreGO-Y27S/V212R/V111G; 10 mM phenylhydrazine, 100 mM PBS pH 6.5, 40 °C; O2 as co-substrate; substrate range 0-100 mM; V111G is misprinted V11G in parts of the text.

Substrate in the data set “purified protein”: O=C(O)CO
The experiment in a line: purified protein. As to conditions: 10 mM phenylhydrazine, 100 mM PBS pH 6.5, 40 °C, O2 as co-substrate, substrate range 0-100 mM.

As usually defined, the Vmax is the top rate of the reaction or transport when substrate is in excess. A word on the kcat: it is the maximal rate divided by the concentration of active sites. By kcat/Km is commonly meant the second-order rate constant that governs catalysis at low substrate concentration.

T1 sequence (F8WQN2 whole entry Y27S/V111G, form open): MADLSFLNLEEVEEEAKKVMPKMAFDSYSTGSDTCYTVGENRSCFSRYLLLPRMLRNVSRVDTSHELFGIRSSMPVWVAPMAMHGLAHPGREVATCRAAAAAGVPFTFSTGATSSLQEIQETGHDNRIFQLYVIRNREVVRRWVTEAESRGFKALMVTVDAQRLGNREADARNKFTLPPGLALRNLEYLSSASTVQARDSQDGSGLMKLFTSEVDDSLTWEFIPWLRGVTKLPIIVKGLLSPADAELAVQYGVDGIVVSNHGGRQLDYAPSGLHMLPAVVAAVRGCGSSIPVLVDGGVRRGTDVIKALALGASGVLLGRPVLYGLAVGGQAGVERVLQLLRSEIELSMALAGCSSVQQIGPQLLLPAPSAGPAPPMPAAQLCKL

For `O=C(O)CO` [sodium glycolate], the Km in data set [1] came to 600 ± 40 µM.

B1: GST-GSG-CreGO (glycolate oxidase CreGO) (Chlamydomonas reinhardtii) (protein)
chain: MADLSFLNLEEVEEEAKKVMPKMAFDYYSTGSDTCYTVGENRSCFSRYLLLPRMLRNVSRVDTSHELFGIRSSMPVWVAPMAMHGLAHPGREVATCRAAAAAGVPFTFSTVATSSLQEIQETGHDNRIFQLYVIRNREVVRRWVTEAESRGFKALMVTVDAQRLGNREADARNKFTLPPGLALRNLEYLSSASTVQARDSQDGSGLMKLFTSEVDDSLTWEFIPWLRGVTKLPIIVKGLLSPADAELAVQYGVDGIVVSNHGGRQLDYAPSGLHMLPAVVAAVRGCGSSIPVLVDGGVRRGTDVIKALALGASGVLLGRPVLYGLAVGGQAGVERVLQLLRSEIELSMALAGCSSVQQIGPQLLLPAPSAGPAPPMPAAQLCKL
Turning to B1, in “purified protein”, the Km came out at 1000 ± 50 µM, the Vmax is 7.2 µmol/min/mg, the kcat worked out at 4.9 s⁻¹ and the kcat/Km was 4900 M⁻¹ s⁻¹.
